The text below walks through data of PMC10591475.

The target of the assay is protein fusion 1, SpyCatcher03 fused to supercharged green fluorescent protein, conjugated with polymer surfactant ([SC3-scGFP][S]). Kind of assay: SDS-PAGE of covalent (isopeptide) SpyCatcher-SpyTag coupling; 10 uM of each protein mixed in 20 mM Tris-HCl, 700 mM NaCl, pH 7.5, 37 °C, monitored over 24 h, in triplicate; product estimated from the pixel intensity of the bands (GelAnalyzer).

Consider “protein fusion 3, mCherry fused to SpyTag03 (mCh-ST3)”, for which the percent of coupling product formed after 15 s is 60% and the yield of coupling product after 24 h was 60%.
With “protein fusion 2, fibronectin-binding protein CshA fused to mCherry with SpyTag03 on the C-terminus (CshA-mCh-ST3)”, the percent of coupling product formed after 15 s was 40% and the yield of coupling product after 24 h is 80%.
